Source: the DeepSol protein solubility set

experiment: soluble on expression in E. coli; label from the status in PepcDB or PDB records

Soluble on expression in E. coli, soluble:
MSLAWAPKNYIEKVVAIYDYTKDKDDELSFKEGAIIYVIKKNDDGWFEGVCNRVTGLFPGNYVESIMHYTDEGHHHHHH
MSLAYTKKKYTPKTKEQIKEETKEIMDKVLTDITKYYRSPEDMLELANFMAKFSNYSPKNMQLIRSQFENAYACANFKAFKDAGFHVNKGETAMKVFHPYVKEYVRDPRTKLAIPLGKLTEEQKKQVKNGELKVEKQTNYYLKATAFDISQTNAKPEDLPKIFPNRQFNFEINDENKELLKIGIQALAEKENIKIKTMGQGALVKELGNVHGAYVQVLDSSYSQIVMNPRNTETNELSVAIHELAHAKLHGNKIDPLEHTPTKEFEAELTSYIVCKHYGMDTSESAVPYIAQWTKNGQDIEEKDKSIMRVHETASSFINTIDKKISELQREGHHHHHH
MSLCRFVAYLGRPTLLENVLVRPKNSIIMQSLHARETKYRTNGDGFGLGWYSPEVSSDPALFTSVYPAWNDRNLLHLTAKIQSPCFFAHVRSASAGGVTNYNCHPFIYGDWMLMHNGEINDFIDVKRHIRHLLDDDIYHWVKGQTDSEHLFGLFLQLAKGRDITQLSVAADVLQETINKILEVIGQFGHSGPSYFNICLTNGKKIIATRYCSHEKKKPLTLHYLIGYVLSTQGLWIKEEGNPAYVVVSSERLNDLDEGWEDVPPQHMILIDENKNIQLRPLQTLGEGHHHHHH
MSLDFKAIQALTANDMAKVNETIHAQLNSDVSLINQLGFYIISGGGKRLRPLLAVLSAKALGYQGSHHTTAAAFIEFIHTATLLHDDVVDESDLRRGKATANAAFGNAASVLVGDFIYTRSFQMMTELGSMKILKLMSDAVNVIAEGEVQQLMNCNDPDTTEASYMQVIYSKTARLFEAATQIGAILCDASPEVELAMQNYGKYLGTAFQLIDDVMDYTSDGDEMGKNVGDDLAEGKPTLPLLYAMQHGNPEQAAMIREAIEKANGMSRLNEILAAMEQTGSLQYTIEKALHEADKAIAELAILPESEYKQALITLAHMAVNRSKEGHHHHHH
MSLDFRDYMVKQVAARSGYQLQLDGPLRWHVWPQLSILSGRMSLTAQGASQPLVRADNMRLDVALLPLLSHQLSVKQVMLKGAVIQLTPQTEAVRSEDAPVAPRDNTLPDLSDDRGWSFDISSLKVADSVLVFQHEDDEQVTIRNIRLQMEQDPQHRGSFEFSGRVNRDQRDLTISLNGTVDASDYPHDLTAAIEQINWQLQGADLPKQGIQGQGSFQAQWQESHKRLSFNQISLTANDSTLSGQAQVTLTEKPEWQLRLQFPQLNLDNLIPLNETANGENGAAQQGQSQSTLPRPVISSRIDEPAYQGLQGFTADILLQASNVRWRGMNFTDVATQMTNKSGLLEITQLQGKLNGGQVSLPGTLDATSINPRINFQPRLENVEIGTILKAFNYPISLTGKMSLAGDFSGADIDADAFRHNWQGQAHVEMTDTRMEGMNFQQMIQQAVERNGGDVKAAENFDNVTRLDRFTTDLTLKDGVVTLNDMQGQSPVLALTGEGMLNLADQTCDTQFDIRVVGGWNGESKLIDFLKETPVPLRVYGNWQQLNYSLQVDQLLRKHLQDEAKRRLNDWAERNKDSRNGKDVKKLLEKMEGHHHHHH
MSLDFREVIEQRYHQLLSRYIAELTETSLYQAQKFSRKTIEHQIPPEEIISIHRKVLKELYPSLPEDVFHSLDFLIEVMIGYGMAYQEHQTLRGIQQEIKSEIEIAANVQQTLLGTKVPQEEALDIGAISVPAKQMSGDYYHFVKDKESINIAIADVIGKGIPAALCMSMIKYAMDSLPETGIHPSQVLKNLNRVVEQNVDASMFITMFYANYNMDKHQFTYASAGHEPGFYYSQKDNTFYDLEAKGLVLGISQDYDYKQFDQHLEKGDMIVLFSDGVTECRTENGFLERPDLQKLIEEHMCSSAQEMVKNIYDSLLKLQDFQLHDDFTLIVLRRKVEGGSHHHHHH
MSLDGMPAKQQHNNTGESVELHFHYPIKGKQEPKNSHLVVLIEPKIEINKVIPESYQKEFEKSLFLQLSSFLERKGYSVSQFKDASEIPQDIKEKALLVLRMDGNVAILEDIVEESDALSEEKVIDMSSGYLNLNFVEPKSEDIIHSFGIDVSKIKAVIERVELRRTNSGGFVPKTFVHRIKETDHDQAIRKIMNQAYHKVMVHITKELSKKHMEHYEKVSSEMKKRKEGHHHHHH
MSLDIKVQKTEDLIPYEKNPRHNEGAITAVAKSIEKFGFKVPIVVDASNVIVNGHTRLKAAKYLGLKEVPTIIADDLTPEQIKAFRLADNKVGEIATWDEELLNAELDELADLDLDFDMTEFGFDLPDIEGEEVEVIEDEFEEELPAEPISKLGDIYQLGRHRLMCGDSTNSLEVEKLMGNKKADLLITDPPYNVAYEGKGKEALTIKNDSKETNEFHSFLYEAFSAAINNMKLGSSFYVWYASSEVVNFHTALEEAGFLVKQELIWNKNSMVLSRQDYHWKHEPCLYGWASGGSHSWYSDRKQTTILNFDRPTVNKEHPTMKPVALFDYQIKNSSKQGDCILDLFGGSGTTLIACEQNEREAYLMELDPRYVDVIIARWEAFTGEVAVKISGNDTAVVDGEGHHHHHH
MSLDKNDVVKKILESKKYENLDSDIVEKVVSISEKKYKLKEVENYSKKKLHQIWGSYYSAYPNWDKLLKKYNQGQLSIEDLLKIHSSTNERVATLNDFYTYVFGNIKHVSSILDFGCGFNPLALYQWNENEKIIYHAYDIDRAEIAFLSSIIGKLKTTIKYRFLNKESDVYKGTYDVVFLLKMLPVLKQQDVNILDFLQLFHTQNFVISFPIKSLSGKEKGMEENYQLWFESFTKGWIKILDSKVIGNELVYITSGFQKEGHHHHHH

Soluble on expression in E. coli, not soluble:
MSLAYQSEYALENEMMNQLEQLGYERVTIRDNKQLLDNFRTILNERHADKLEGNPLTDKEFQRLLTMIDGKSIFESARILRDKLPLRRDDESEIYLSFLDTKSWCKNKFQVTNQVSVEDTYKARYDVTILINGLPLVQVELKRRGIDINEAFNQVKRYRKQNYTGLFRYIQMFIISNGVETRYFSNNDSELLKSHMFYWSDEGHHHHHH
MSLCVFLTSEVNMGLFNFVKDAGEKLWDAVTANHDKDDQAKKVQEHLNKTGIPDTDKVNVQIADGKATVTGDGLSQEAKEKILVAVGNIAGISSVDDQVKTTTPAAESQFYTVKSGDTLSAISKQVYGNANLYNKIFEANKPMLKSPEKIYPGQVLRIPEEGHHHHHH
MSLDEGRTPILGEHPRPTMVRDNCTMLNGWWDYAIVSIPEDETAPKWRKTAAMLTRDEAVRAVKETAIPQTFDGKILVPFSPESALSGVHQTIYPDNLLWYRTVVHPVTLGGEETVRQIGDANRLILHFEAVDYVCACYVNGQLAGTHVGGYLPFDVDISAFIDPDDAFEIALCVYDPNDSGTQLRGKQKIEREGIWYTAQSGIWQSVWLEIVPEAYLRTLTLKGASDGKLFVRAEIGGDKPNAKLHIVVTDPADGTVVADETLPAGVRKVRAEIATAAEHLWSPADPYLYDVRAELRYGSAKPAETAGDAAVVQSQPMDVVSSYCAFRSVEIKPDTKGVARFHLNGKPLFVKGVLDQGYWPDGLMTAPDDEALTHDITAMKNAGFNMLRKHIKIESARWYYHCDRLGMLVWQDAVSGGGTDGEYNAWTTNRKPTLIRSTWNKFRDDTAKHFTALGADDPIYRRDWSRTCDAMVHMLGGHPSIVTWTLFNEGWGQFDACDATERIHALDPTRPIDATSGWYDQHCGDYHSVHNYFRPLEIYPDKGPLRGYVAEFEKKHRRRRRAAHYVVLPVARHGVRAFVISEFGGLAQLVPEHAAVSRAYGYGEYDSIDDWRAAVRSVLASAAALESRGLAGYVYTQVSDVEEELNGLLTYDRRVDKFAEEGHHHHHH
